Legend:
ILT4 (CHO-S/ILT4 cells) [1] = target: ILT4 (CHO-S/ILT4 cells) (human); test: FACS
ILT4 (CHO-S/ILT4 cells) [2] = target: ILT4 (CHO-S/ILT4 cells) (human); test: FACS, assay 2
ILT4 (CHO-S/ILT4 cells) [3] = target: ILT4 (CHO-S/ILT4 cells) (human); test: FACS, assay 3
ILT4 (CHO-S/ILT4 cells) [4] = target: ILT4 (CHO-S/ILT4 cells) (human); test: FACS, assay 4

ILT4 (CHO-S/ILT4 cells) (human), sequence (chain, as listed by the source): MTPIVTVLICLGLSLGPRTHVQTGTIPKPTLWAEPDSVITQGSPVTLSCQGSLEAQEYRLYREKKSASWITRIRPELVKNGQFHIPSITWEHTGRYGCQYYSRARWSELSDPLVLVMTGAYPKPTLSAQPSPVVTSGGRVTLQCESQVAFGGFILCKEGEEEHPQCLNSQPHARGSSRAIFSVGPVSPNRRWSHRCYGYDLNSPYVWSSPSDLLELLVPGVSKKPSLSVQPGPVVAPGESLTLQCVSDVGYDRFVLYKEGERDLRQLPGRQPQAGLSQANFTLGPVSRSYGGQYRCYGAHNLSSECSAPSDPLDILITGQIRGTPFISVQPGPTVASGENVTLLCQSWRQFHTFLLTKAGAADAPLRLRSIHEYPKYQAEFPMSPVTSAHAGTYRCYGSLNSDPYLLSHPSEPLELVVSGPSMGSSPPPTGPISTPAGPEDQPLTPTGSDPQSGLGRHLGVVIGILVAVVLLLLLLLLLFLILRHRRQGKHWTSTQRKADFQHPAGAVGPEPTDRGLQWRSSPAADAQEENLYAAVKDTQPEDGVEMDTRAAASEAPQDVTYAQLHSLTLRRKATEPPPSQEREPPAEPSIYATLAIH

Binder | EC50 (ILT4 (CHO-S/ILT4 cells) [1]) | EC50 (ILT4 (CHO-S/ILT4 cells) [2]) | EC50 (ILT4 (CHO-S/ILT4 cells) [3]) | EC50 (ILT4 (CHO-S/ILT4 cells) [4])
P2m (antibody, V domains shown) VH: QVQLVQSGAEVKKPGSSVKVSCKASGYTFTSYDISWVRQAPGQGLEWMGGIIPIFGTANYAQKFQGRVTITADESTSTAYMELSSLRSEDTAVYYCTAGIFLATAYWGQGTLVTVSS VL: DIQMTQSPSSMSASVGDRVTISCQASQDIQNYLNWYQQRPGQAPKLLIYDASTLETGVPSRFSGSGSGTYFTLTISSLQPEDVATYYCQQYENVPITFGQGTRLEIK | 0.0163 µg/mL |  |  | 
huP2-G9 (antibody, V domains shown) VH: EVQLQESGPGLVKPSQTLSLTCTVSGSSITSGYYWNWIRQHPGKGLEWIGYLSYDGSNNYNPSLKNLVTISRDTSKNQFSLKLSSVTAADTAVYYCAREGAHYSGTLSWFAYWGQGTLVTVSS VL: DIQMTQSPSSLSASVGDRVTITCRASENIYSNLAWYQQKPGKSPKLLVYAATNLADGVPSRFSGSGSGTDYTLTISSLQPEDFATYYCQHFWDTPYTFGGGTKVEIK | 0.045 µg/mL |  |  | 
MK (antibody, V domains shown) VH: EVQLQQWGAGLLKPSETLSLTCAVYGGSFSGYYWSWIRQPPGKGLEWIGEINHAGSTNYNPSLKSRVTISVDTSKNQFSLKLSSVTAADTAVYYCARLPTRWVTTRYFDLWGRGTLVTVSS VL: ESVLTQPPSVSGAPGQRVTISCTGSSSNIGAGYDVHWYQQLPGTAPKLLIYGDSNRPSGVPDRFSVSKSGASASLAITGLQAEDEADYYCQSFDNSLSAYVFGGGTQLTVLG |  | 0.0415 µg/mL | 0.301 µg/mL | 0.0139 µg/mL
huP2-C6 (antibody, V domains shown) VH: EVQLVQSGAEVKKPGASVKVSCKASGYTFTDYYIHWVRQAPGQGLEWMGYIYPDTGYSGYNQKFKGRVTMTVDKSTSTAYMELRSLRSDDTAVYYCTRRGDYSGVHFDYWGQGTTVTVSS VL: DIVLTQSPDSLAVSLGERATINCRASESVNNYGVGFLHWYQQKPGQPPKLLIYRASTLESGIPDRFSGSGSGTDFTLTISSLQAEDVAVYYCQHSYKDPPWTFGGGTKVEIK | 0.0368 µg/mL |  |  | 
